The source of these data is article PMC9054839, “Mechanism of integrin activation by talin and its cooperation with kindlin” (Nature Communications, 2022).

No end group written: not given here.

What all share (details): both partners purified
Assay [1] has as its target T1, paxillin 1–160 (human, UniProt P49023-3 1-160).
T1 construct: paxillin-γ, human, N-terminal 1-160 containing LD1 and LD2, in pGST-1; also called paxillin-γ 1–160; paxillin N-terminal 1–160; source: E. coli BL21 (DE3), purified (GST column, gel filtration)
As to the kind of experiment: SPR; paxillin 1–160 amine-coupled to CM5, talin subdomains (0–12 μM) flowed over; 50 mM sodium phosphate pH 6.8, 150 mM NaCl, 25 °C; talin-R1–R4 fitted by a two-state model. For orientation: Surface plasmon resonance follows binding to a sensor surface in real time, without labels.

Assay [2] deals with T2, constitutively activated full-length talin mutant tlnM3 (M319A, T1767L, E1770K) (mouse, UniProt P26039 1-2541, M319A | T1767L | E1770K).
T2 construct: talin (talin-1), mouse, full length 1-2541, in pET28T; also called active talin; talinFL TM; source: E. coli BL21 (DE3), purified (nickel column, Superose-6 gel filtration)
As to the kind of experiment: SPR; tlnM3 amine-coupled to CM5, paxiFL (0–500 nM) flowed over; 50 mM sodium phosphate pH 6.8, 150 mM NaCl, 25 °C; 1:1 model.

For assay [3], the target named is T2, constitutively activated full-length …. As to the kind of experiment: SPR; GST-integrin beta3CT amine-coupled to CM5, talinH or tlnM3 (0–125 nM) flowed over; 50 mM sodium phosphate pH 6.8, 150 mM NaCl, 0.05% Tween 20, 0.03% BSA, 25 °C.
Assay [4] shares this target. As to the kind of experiment: pull-down; GST-paxillin (full length or fragments) on glutathione-Sepharose 4B beads, talin or talin fragments as prey; 25 mM Tris-HCl pH 7.5, 150 mM NaCl, 0.5 mM TCEP, 0.01 or 0.1% NP40, 4 °C; western blot or Coomassie. In general terms: A western blot detects proteins with antibodies after separation by electrophoresis.

T1 sequence (P49023 1-160): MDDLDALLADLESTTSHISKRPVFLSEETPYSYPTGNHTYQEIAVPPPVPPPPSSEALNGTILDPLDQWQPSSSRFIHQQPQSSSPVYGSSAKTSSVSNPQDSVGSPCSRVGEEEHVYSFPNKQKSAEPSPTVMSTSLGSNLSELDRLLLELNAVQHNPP
T2 sequence (P26039 whole entry M319A/T1767L/E1770K): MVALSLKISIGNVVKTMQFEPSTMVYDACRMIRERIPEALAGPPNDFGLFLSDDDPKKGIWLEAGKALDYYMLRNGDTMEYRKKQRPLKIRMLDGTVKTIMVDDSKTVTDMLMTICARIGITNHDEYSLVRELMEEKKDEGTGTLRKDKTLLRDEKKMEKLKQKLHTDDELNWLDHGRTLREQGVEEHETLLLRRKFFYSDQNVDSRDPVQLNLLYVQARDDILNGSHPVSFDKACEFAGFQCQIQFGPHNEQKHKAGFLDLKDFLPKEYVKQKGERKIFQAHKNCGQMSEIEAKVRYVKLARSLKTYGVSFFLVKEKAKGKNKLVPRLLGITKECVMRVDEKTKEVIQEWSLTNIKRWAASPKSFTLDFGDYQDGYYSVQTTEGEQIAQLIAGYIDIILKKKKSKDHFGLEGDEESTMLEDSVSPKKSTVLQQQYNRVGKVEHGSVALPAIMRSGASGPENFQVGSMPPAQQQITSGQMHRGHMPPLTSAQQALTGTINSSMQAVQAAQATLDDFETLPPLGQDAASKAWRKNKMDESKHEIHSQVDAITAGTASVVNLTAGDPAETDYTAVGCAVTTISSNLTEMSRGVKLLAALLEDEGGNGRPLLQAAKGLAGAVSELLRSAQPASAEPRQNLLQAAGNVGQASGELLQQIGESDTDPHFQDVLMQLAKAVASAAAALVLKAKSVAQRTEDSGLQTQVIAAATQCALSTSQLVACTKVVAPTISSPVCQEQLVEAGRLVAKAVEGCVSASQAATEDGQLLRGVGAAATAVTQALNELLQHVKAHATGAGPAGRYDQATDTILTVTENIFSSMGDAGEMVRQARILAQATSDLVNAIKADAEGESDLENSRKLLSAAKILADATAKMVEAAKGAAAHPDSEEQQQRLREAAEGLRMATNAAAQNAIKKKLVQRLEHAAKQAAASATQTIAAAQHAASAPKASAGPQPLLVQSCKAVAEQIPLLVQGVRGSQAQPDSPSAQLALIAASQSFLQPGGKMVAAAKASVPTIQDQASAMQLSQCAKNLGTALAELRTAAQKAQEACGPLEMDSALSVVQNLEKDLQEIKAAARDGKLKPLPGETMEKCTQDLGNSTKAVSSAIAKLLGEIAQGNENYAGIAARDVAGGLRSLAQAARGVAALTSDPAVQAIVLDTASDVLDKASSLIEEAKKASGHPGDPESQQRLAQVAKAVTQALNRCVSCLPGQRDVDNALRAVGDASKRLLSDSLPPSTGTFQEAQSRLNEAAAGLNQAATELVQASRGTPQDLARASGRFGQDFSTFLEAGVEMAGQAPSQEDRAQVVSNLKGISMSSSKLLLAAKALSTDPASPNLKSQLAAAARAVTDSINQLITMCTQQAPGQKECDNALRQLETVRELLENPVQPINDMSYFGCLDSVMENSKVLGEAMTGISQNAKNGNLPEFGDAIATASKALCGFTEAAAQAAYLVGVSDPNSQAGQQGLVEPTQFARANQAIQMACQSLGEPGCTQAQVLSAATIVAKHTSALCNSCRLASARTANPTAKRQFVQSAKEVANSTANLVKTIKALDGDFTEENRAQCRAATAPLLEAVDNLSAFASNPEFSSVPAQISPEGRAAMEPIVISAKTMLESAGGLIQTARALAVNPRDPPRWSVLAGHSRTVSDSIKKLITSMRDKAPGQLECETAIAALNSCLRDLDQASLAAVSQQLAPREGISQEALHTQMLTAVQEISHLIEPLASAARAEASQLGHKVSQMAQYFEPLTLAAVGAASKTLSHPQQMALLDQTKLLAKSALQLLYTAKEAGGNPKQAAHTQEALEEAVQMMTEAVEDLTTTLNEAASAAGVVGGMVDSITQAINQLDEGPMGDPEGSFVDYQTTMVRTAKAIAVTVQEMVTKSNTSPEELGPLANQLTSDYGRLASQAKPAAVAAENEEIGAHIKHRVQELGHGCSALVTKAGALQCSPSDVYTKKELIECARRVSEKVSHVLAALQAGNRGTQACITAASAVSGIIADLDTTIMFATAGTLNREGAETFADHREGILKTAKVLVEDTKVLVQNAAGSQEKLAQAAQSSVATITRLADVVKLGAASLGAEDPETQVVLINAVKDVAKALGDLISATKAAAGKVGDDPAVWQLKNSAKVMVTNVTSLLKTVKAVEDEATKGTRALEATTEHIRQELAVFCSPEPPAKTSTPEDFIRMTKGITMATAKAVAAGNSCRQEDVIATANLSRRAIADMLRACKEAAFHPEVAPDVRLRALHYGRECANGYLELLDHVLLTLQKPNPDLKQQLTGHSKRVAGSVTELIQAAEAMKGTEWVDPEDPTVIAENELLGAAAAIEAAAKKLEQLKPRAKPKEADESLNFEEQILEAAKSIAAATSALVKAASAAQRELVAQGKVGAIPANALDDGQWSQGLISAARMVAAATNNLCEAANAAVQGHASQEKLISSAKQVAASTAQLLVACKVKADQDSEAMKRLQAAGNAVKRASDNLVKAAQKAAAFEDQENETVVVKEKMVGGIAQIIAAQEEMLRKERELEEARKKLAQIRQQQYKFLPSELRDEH

B1: talin-R2 (domain or fragment, mouse, UniProt P26039 655-782, looked up)
chain: IGESDTDPHFQDVLMQLAKAVASAAAALVLKAKSVAQRTEDSGLQTQVIAAATQCALSTSQLVACTKVVAPTISSPVCQEQLVEAGRLVAKAVEGCVSASQAATEDGQLLRGVGAAATAVTQALNELL
notes: talin (talin-1), mouse, rod subdomain R2; source: E. coli BL21 (DE3), purified
B1: the Kd in assay [1] was around 2.21 µM.

B2: full-length paxillin (natural protein)
chain: not shown
notes: also called paxiFL; paxillin-γ; source: E. coli BL21 (DE3), purified (GST column, gel filtration)
In the case of B2, in assay [2], the Kd was around 0.0331 µM and the “stoichiometry N” value worked out at 1.

B3: GST-integrin beta3 cytoplasmic tail (domain or fragment, UniProt P05106 742-788, looked up)
chain: {GST}-KLLITIHDRKEFAKFEEERARAKWDTANNPLYKEATSTFTNITYRGT
notes: integrin β3 cytoplasmic tail; also called integrin-β3 CT; GST-integrin beta3CT; source: E. coli BL21 (DE3), purified
In assay [3], B3 registered a dissociation constant Kd of around 0.0145 µM.

B4: GST-paxillin 1–160 (domain or fragment)
chain: not shown
notes: paxillin-γ, human, N-terminal 1-160 containing LD1 and LD2, in pGST-1; also called paxi1–160; source: E. coli BL21 (DE3), purified (GST column, gel filtration)
B4: the binding result in assay [4] was “binds”.

B5: talin-F3 (domain or fragment)
chain: GVSFFLVKEKMKGKNKLVPRLLGITKECVMRVDEKTKEVIQEWSLTNIKRWAASPKSFTLDFGDYQDGYYSVQTTEGEQIAQLIAGYIDIILKKKKS
Take B5: the Kd in assay [1] was around 3.51 µM.

B6: talin-R8 (domain or fragment, mouse, UniProt P26039 1461-1580, looked up)
chain: LVEPTQFARANQAIQMACQSLGEPGCTQAQVLSAATIVAKHTSALCNSCRLASARTANPTAKRQFVQSAKEVANSTANLVKTIKALDGDFTEENRAQCRAATAPLLEAVDNLSAFASNPE
notes: talin (talin-1), mouse, rod subdomain R8; source: E. coli BL21 (DE3), purified
For B6, in assay [1], the Kd was around 5.37 µM.

A word on the Kd: it is the concentration at which binding is half-saturated. What is called stoichiometry N is the number of molecules, sites or subunits per partner or assembly.
